Target: human FcγRIIIa-V158 (CD16a, V158 allotype) (human) (UniProt P08637)

Substance: P-TMab (trastuzumab produced by the glycoengineered rice cell line PhytoRice, line PHYTO101) (antibody)
- EC50 of the in vitro ADCC assay (luminescence, Bio-Glo reagent; BT-474 target cells, Jurkat cells): 0.017 µg/mL
